The values that follow come from patent US20220332759A1, “TARGETED PULMONARY DELIVERY COMPOSITIONS AND METHODS USING SAME” (Rutgers, The State University of New Jersey, priority 2019, published 2022).

One test deals with A549 cell monolayer. The experiment in a line: Cellular barrier permeability (Transwell) assay and empirical model of phage transport. Particulars: A549 cells, different concentrations, 1 h. It counts as in vitro ADME, human. From the text:
To investigate the transport of phage particles across the cellular monolayer, data from the in vitro Transwell assays (FIG. 3E) was used to quantify the parameters of an empirical mathematical model of phage accumulation in the bottom chamber (Equation 1). The mass of phage particles [N(t), measured experimentally as TU] transported across the cellular barrier at time t, was represented by Equation (Eq. 1), as follows:
where, Ns represent the mass of phage particles (TU) in the bottom chamber at saturation; k is the transport rate constant, the inverse of which gives the characteristic time (τ=1/k) of the transport process. The first derivative of Equation 1
provides the time-dependent transport rate of phage particles across the in vitro cellular barrier. Least squares fitting of the model to the experimental data was performed in MATLAB. The transport rate decays exponentially over time at rate k, and its maximal value can be determined at time t=0 as […]

The target in test [1] is T1, human recombinant α3β1 integrin (Homo sapiens, UniProt P05556+P26006).
T1 construct: purchased R&D Systems
The experiment in a line: Phage binding assay to immobilized recombinant proteins. The note with it: increasing molar concentrations, relative to unrelated control peptide. The protocol: Phage binding to recombinant proteins (α3β1, α6β1, α6β4, NRP-1 and SDC-1) and BSA (Sigma) were performed as described (Cardó-Vila, et al., 2008, PLoS One 3:e3452). Briefly, 100 ng of each of the indicated proteins dissolved in 50 μL PBS were immobilized in microtiter wells overnight (ON) at 4° C. […] After 2 h at RT, wells were gently washed 10 times with PBS, and phage was recovered by host bacterial infection and represented as “Relative TU” as an empirical measure of the biological replicates and controls when compared to one another as described (Arap, W. et al., Nat. Med., 2002, 8:121-127; Cardó-Vila, et al., 2008, PLoS One 3:e3452). Human recombinant proteins α3β1, α6β1, α6β4, NRP-1 and SDC-1 were all commercially obtained from R&D Systems. Recombinant GST and […]-GST were produced in E. coli transformed with the pGEX4T-1 plasmid (Amersham, GE Healthcare) and purified with standard protocols. All synthetic peptides were custom manufactured by Merrifield synthesis and quality-controlled to the necessary specifications (Biomatik and PolyPeptide Laboratories).

Test [2] deals with T2, mouse α3β1 integrin expressed on the plasma membrane of AT1 and AT2 alveolar epithelial cells and club cells (mouse, UniProt Q62470 33-1053; P09055 21-798).
T2 construct: whole, on cells; Target on lung cells of BALB/c mice after aerosol administration of phage; also called α3β1 integrins in lung tissue; α3β1 integrin in vivo
The experiment in a line: TU count of phage recovered from flow-sorted mouse lung cells after aerosol administration.
Method: Cells were sorted in an iCyt sy3200 (Sony) cell sorter previously calibrated with compensation beads (UltraComp eBeads, Thermo Scientific). AT1-, AT2-enriched cell populations and macrophages were centrifuged, and the number of phage particles per cell type was determined by TU count.
To further evaluate the bioavailability of [sequence]-displaying phage particles after aerosol administration, the binding capabilities of the phage particles to specific lung cells were determined by flow cytometry. […] Specific cell populations of the lung were isolated and flow cytometry sorted in three main cell populations (FIG. 5A): AT1-enriched population (EPCAM⁺, CD45⁻, CD31⁻, T1α^high); AT2-enriched population (EPCAM⁺, CD45⁻, CD31⁻, Tα^low) and mononuclear phagocytes (EPCAM⁻, CD45⁺, CD31⁻, F4/80⁺). The number of either targeted or control phage particles bound to each cell population was determined by TU counting after infection with a host bacterium.

Test [3] has as its target T3, human recombinant α3β1 integrin (human, UniProt P26006 33-991; P05556 21-728).
T3 construct: Bought protein, 100 ng immobilised in microtiter wells; also called α3β1 integrins
Put plainly: competition of phage binding to immobilised α3β1 (FIG. 3B).

Ends that are not written are not given here.

T2 sequence (Q62470 33-1053, chain 1 of 2): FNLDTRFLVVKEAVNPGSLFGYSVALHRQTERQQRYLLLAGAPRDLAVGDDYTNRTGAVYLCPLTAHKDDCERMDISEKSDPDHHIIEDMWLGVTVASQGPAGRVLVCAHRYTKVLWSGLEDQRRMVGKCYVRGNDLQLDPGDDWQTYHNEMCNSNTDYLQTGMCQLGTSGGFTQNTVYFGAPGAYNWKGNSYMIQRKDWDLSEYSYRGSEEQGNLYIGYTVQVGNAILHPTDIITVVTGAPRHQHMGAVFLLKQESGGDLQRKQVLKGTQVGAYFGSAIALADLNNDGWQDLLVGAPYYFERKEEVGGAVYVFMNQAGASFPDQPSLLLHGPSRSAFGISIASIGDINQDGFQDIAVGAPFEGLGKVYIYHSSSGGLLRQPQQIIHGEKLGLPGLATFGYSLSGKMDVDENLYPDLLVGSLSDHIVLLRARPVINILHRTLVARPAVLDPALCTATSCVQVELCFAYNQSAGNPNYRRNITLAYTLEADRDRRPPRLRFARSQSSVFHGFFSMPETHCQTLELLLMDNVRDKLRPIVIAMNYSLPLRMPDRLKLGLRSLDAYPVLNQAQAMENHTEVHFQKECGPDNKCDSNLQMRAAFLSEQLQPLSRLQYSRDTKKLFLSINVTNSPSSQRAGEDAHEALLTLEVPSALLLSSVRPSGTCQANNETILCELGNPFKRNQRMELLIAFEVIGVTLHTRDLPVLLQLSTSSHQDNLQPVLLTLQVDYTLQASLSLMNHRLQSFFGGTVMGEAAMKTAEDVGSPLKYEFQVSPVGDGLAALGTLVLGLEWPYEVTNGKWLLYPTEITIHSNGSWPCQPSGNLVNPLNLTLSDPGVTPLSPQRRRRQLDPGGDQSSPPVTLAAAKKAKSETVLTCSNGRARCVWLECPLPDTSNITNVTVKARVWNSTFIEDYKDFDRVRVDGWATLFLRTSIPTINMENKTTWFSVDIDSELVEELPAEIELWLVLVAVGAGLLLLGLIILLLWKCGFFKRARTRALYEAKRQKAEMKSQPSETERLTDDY
T2 sequence (P09055 21-798, chain 2 of 2): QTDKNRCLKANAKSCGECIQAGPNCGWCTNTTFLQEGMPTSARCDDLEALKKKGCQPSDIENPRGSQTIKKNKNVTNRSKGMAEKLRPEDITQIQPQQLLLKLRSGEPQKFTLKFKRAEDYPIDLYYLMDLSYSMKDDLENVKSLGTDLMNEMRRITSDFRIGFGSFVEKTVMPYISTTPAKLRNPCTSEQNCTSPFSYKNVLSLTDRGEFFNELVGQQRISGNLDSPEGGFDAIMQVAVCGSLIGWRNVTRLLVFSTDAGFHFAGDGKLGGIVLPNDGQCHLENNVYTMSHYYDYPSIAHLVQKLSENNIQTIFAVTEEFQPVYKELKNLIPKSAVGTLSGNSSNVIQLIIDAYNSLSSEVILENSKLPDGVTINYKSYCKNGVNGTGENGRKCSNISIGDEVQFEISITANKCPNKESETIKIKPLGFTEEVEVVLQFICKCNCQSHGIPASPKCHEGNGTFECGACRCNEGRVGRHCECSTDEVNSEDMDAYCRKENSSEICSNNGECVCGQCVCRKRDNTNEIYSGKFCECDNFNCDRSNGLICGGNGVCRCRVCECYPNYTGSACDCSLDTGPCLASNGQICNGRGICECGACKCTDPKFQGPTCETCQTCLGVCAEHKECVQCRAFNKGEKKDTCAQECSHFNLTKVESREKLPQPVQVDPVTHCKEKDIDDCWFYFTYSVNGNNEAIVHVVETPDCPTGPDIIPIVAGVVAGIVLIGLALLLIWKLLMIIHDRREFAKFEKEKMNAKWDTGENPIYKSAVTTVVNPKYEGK
T1 sequence (P26006 33-991 limits assumed): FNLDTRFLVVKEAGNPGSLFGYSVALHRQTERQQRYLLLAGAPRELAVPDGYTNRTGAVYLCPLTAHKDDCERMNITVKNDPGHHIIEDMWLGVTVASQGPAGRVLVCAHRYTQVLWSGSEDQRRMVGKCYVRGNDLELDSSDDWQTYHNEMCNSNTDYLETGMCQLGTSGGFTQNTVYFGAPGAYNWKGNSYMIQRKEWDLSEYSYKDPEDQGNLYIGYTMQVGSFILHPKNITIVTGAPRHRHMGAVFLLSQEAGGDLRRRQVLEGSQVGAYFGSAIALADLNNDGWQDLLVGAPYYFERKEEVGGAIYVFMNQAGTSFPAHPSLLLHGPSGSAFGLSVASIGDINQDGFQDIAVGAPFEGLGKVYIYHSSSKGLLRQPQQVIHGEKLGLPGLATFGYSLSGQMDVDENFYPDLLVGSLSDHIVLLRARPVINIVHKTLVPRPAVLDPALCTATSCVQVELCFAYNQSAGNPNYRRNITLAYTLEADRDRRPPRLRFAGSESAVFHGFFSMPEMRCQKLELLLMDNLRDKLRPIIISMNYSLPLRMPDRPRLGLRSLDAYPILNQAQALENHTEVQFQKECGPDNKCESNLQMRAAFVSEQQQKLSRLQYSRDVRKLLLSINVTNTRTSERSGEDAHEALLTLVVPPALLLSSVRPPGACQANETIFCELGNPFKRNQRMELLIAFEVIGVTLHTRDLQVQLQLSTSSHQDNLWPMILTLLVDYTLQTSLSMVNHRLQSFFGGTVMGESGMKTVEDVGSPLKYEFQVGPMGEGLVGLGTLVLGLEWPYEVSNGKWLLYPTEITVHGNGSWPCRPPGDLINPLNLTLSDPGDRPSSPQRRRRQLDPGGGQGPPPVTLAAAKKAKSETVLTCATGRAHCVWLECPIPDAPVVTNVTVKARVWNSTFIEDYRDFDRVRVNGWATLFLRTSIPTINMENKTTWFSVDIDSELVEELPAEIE
T1 sequence (P05556 21-728 limits assumed): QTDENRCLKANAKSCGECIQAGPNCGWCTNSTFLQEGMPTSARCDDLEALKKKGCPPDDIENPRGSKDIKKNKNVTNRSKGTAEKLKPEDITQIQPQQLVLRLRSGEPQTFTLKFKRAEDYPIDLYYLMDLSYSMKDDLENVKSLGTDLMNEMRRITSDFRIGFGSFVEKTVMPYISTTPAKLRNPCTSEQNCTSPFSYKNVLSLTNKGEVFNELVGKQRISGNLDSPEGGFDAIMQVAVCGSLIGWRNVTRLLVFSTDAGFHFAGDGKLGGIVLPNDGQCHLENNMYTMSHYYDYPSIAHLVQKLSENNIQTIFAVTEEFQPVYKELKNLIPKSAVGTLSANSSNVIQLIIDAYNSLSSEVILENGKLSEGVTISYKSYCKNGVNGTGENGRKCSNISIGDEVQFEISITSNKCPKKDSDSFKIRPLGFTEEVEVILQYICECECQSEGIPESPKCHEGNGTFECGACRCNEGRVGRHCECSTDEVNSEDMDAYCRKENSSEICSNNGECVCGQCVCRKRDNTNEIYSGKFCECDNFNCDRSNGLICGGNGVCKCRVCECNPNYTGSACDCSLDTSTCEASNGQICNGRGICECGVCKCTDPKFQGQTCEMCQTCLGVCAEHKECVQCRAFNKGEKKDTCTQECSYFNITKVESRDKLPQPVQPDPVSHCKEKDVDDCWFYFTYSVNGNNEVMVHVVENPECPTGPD
T3 sequence (P26006 33-991 limits assumed, chain 1 of 2): as the sequence (P26006 33-991 limits assumed) above
T3 sequence (P05556 21-728 limits assumed, chain 2 of 2): as the sequence (P05556 21-728 limits assumed) above

On to “CAKSMGDIVC-GST: recombinant CAKSMGDIVC-GST produced in E. coli transformed with the pGEX4T-1 plasmid (CAKSMGDIVC-{GST}; cysteine pairing not given here)”, for which the “competition of CAKSMGDIVC-displaying phage transport in Transwell” value with A549 cell monolayer is reported as “concentration-dependent ligand-receptor specificity”.

Consider “CAKSMGDIVC [index ligand transport peptide; soluble synthetic peptide produced through Merrifield synthesis]”, for which the “inhibition of CAKSMGDIVC-displaying phage binding to α3β1 integrin” value in test [1] is “Concentration-dependent inhibition”.

B1: targeted CAKSMGDIVC-displaying phage particles (other, not shown: large carriers)
chain: CAKSMGDIVC
modifications: not fully specified (bridges); cysteine pairing not given here; also: displayed on phage pIII
notes: Whole phage particle; also called phage clone 2
For B1, the “fold binding to AT1-enriched population against AT2-enriched cells” value in test [2] was approximately 2 fold.

B2: synthetic CAKSMGDIVC peptide (peptide)
peptide: CAKSMGDIVC
notes: Made by Merrifield synthesis; also called cognate synthetic peptide
With B2, the binding result in test [3] is recorded as “binds”.
